Measurements taken from PMC3316703.

B1: Thy-1 on CAD cells (natural protein)
chain: QKVTSLTACLVNQNLRLDCRHENNTKDNSIQHEFSLTREKRKHVLSGTLGIPEHTYRSRVTLSNQPYIKVLTLANFTTKDEGDYFCELQVSGANPMSSNKSISVYRDKLVKC
modifications: GPI anchor

Legend:
[1] = target: Thy-1 on CAD cells (mouse (endogenous in CAD cells)) (UniProt P01831)
[2] = target: Thy-1 on the surface of primary rat cortical neurons (rat (endogenous in primary cortical neurons)) (UniProt P01830)
[3] = target: Thy-1 on the surface of primary rat cortical neurons (rat (endogenous in primary cortical neurons)) (UniProt P01830); remark: listed apart in the source
[4] = target: Thy-1 on the surface of primary rat cortical neurons (rat (endogenous in primary cortical neurons)) (UniProt P01830); remark: listed apart in the source
[5] = target: αVβ3 integrin on the cell surface of DITNC1 astrocytes (UniProt Q8R2H2)
UniProt Q8R2H2, sequence (Q8R2H2 whole entry, looked up): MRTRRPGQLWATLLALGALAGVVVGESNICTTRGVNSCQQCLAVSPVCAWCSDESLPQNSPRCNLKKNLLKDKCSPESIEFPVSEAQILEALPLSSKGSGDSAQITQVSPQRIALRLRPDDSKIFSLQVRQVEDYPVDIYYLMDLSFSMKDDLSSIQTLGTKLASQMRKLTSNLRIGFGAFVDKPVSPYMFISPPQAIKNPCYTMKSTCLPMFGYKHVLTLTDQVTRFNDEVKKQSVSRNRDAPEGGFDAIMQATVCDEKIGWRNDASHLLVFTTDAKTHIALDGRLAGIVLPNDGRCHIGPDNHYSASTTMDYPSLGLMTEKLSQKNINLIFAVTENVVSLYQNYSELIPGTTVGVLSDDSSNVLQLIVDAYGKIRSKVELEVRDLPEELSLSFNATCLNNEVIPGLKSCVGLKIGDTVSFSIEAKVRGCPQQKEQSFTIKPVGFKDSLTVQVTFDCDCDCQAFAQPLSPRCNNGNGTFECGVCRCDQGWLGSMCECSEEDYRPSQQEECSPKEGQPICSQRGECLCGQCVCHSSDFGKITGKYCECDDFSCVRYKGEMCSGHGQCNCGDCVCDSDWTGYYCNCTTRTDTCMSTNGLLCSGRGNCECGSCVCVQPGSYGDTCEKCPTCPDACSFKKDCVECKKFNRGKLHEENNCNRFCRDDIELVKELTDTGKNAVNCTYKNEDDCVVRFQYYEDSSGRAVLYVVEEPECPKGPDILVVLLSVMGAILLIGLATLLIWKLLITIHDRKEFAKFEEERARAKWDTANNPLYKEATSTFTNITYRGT

UniProt P01830, sequence (P01830 20-130): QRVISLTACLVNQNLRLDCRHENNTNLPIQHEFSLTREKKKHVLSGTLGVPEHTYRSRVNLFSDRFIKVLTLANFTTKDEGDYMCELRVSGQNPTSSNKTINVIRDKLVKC

Row | length of processes of CAD cells on αVβ3-Fc-coated plates in comparison to controls [1] [% decrease] | length of dendrites of cortical neurons (4–5 days in culture) treated with αVβ3-Fc-containing supernatant for 72 hours, compared with non-treated neurons; prevented by PI-PLC pre-treatment [2] [% decrease] | percentage of Thy-1 positive axonal terminals collapsed in mature cortical neurons (12–15 days in vitro) treated with αVβ3-Fc-containing supernatants [3] [%] | percentage of axonal terminals collapsed in mature cortical neurons treated with αVβ3-Fc cross-linked with Protein A [4] [%] | percentage of differentiated CAD cells (processes ≥15 µm) seeded over a monolayer of DITNC1 astrocytes, against ∼80% on plastic [5] [%] | Molecule
1 | 40 | 50 | 55 | 80 | – | αVβ3-Fc fusion protein (from UniProt P06756 31-1048; P05106 27-718)
2 | – | – | – | – | 35 | B1
